Data on four proteins can be found in paper PMC5821942, “Crystal structure of IspF from Bacillus subtilis and absence of protein complex assembly amongst IspD/IspE/IspF enzymes in the MEP pathway” (Bioscience Reports, 2018).

The term stoichiometry N denotes the number of molecules, sites or subunits per partner or assembly.

Data set [1] deals with the molecule itself. In words: SEC; Superdex200 10/300 GL; single E. coli proteins and triple mixture (0.2 mg each, 250 μl); 100 mM NaCl, 25 mM Tris/HCl pH 8.0; 1 mM MgCl2, 1 mM MEP, 1 mM CTP if IspD present; 30°C 30 min.
Data set [2] concerns the molecule itself. In words: SEC; Superdex75 10/300 GL; single B. subtilis proteins and triple mixture (0.2 mg each, 250 μl); 100 mM NaCl, 25 mM Tris/HCl pH 8.0; 1 mM MgCl2, 1 mM MEP, 1 mM CTP if IspD present; 30°C 30 min. In general terms: SEC sorts molecules by how far they enter the pores of the column.
Data set [3] deals with the molecule itself. In words: crystal structure; BsIspF native and with CMP, space group P2(1), six monomers in the asymmetric unit, 1.99 Å.

B1: 2-C-Methyl-D-erythritol 2,4-cyclodiphosphate synthase (IspF) from Escherichia coli (enzyme, Escherichia coli K12, UniProt P62617 1-159, looked up)
chain: MRIGHGFDVHAFGGEGPIIIGGVRIPYEKGLLAHSDGDVALHALTDALLGAAALGDIGKLFPDTDPAFKGADSRELLREAWRRIQAKGYTLGNVDVTIIAQAPKMLPHIPQMRVFIAEDLGCHMDDVNVKATTTEKLGFTGRGEGIACEAVALLIKATK
notes: IspF of E. coli K12; ispF gene PCR amplified and inserted into pET-22b; histidine tag removed by thrombin; also called EcIspF; source: E. coli BL21 (DE3) (pET-22b), purified (Ni-NTA, Resource Q, Superdex 75); not shown: His6, C-terminal, cleaved
Turning to B1, in data set [1], the “stoichiometry N” value stood at 3.

B2: 2-C-Methyl-D-erythritol-4-phosphate cytidyltransferase (IspD) from Bacillus subtilis (enzyme, Bacillus subtilis 168, UniProt Q06755 1-232, looked up)
chain: MSYDVVIPAAGQGKRMKAGRNKLFIELKGDPVIIHTLRVFDSHRQCDKIILVINEQEREHFQQLLSDYPFQTSIELVAGGDERQHSVYKGLKAVKQEKIVLVHDGARPFIKHEQIDELIAEAEQTGAAILAVPVKDTIKRVQDLQVSETIERSSLWAVQTPQAFRLSLLMKAHAEAERKGFLGTDDASLVEQMEGGSVRVVEGSYTNIKLTTPDDLTSAEAIMESESGNKHV
notes: IspD of B. subtilis 168 (DSM 23778); ispD gene amplified from genomic DNA, ~699 bp product, cloned BamHI/XhoI into pGEX-6P-1; GST removed by PreScission protease; also called BsIspD; source: E. coli DH5α (pGEX-6P-1), purified (Glutathione Sepharose 4 Fast Flow, Resource Q, Superdex 75)
In the case of B2, the “stoichiometry N” value in data set [2] was 2.

B3: 2-C-Methyl-D-erythritol-4-phosphate cytidyltransferase (IspD) from Escherichia coli (enzyme, Escherichia coli K12, UniProt Q46893 1-236, looked up)
chain: MATTHLDVCAVVPAAGFGRRMQTECPKQYLSIGNQTILEHSVHALLAHPRVKRVVIAISPGDSRFAQLPLANHPQITVVDGGDERADSVLAGLKAAGDAQWVLVHDAARPCLHQDDLARLLALSETSRTGGILAAPVRDTMKRAEPGKNAIAHTVDRNGLWHALTPQFFPRELLHDCLTRALNEGATITDEASALEYCGFHPQLVEGRADNIKVTRPEDLALAEFYLTRTIHQENT
notes: IspD of E. coli K12; ispD gene PCR amplified and inserted into pET-22b; histidine tag removed by thrombin; also called EcIspD; source: E. coli BL21 (DE3) (pET-22b), purified (Ni-NTA, Resource Q, Superdex 75); not shown: His6, C-terminal, cleaved
In the case of B3, the “stoichiometry N” value in data set [1] is 2.

B4: 2-C-Methyl-D-erythritol 2,4-cyclodiphosphate synthase (IspF) from Bacillus subtilis (enzyme, Bacillus subtilis 168)
chain: MFRIGQGFDVHQLVEGRPLIIGGIEIPYEKGLLGHSDADVLLHTVADACLGAVGEGDIGKHFPDTDPEFKDADSFKLLQHVWGIVKQKGYVLGNIDCTIIAQKPKMLPYIEDMRKRIAEGLEADVSQVNVKATTTEKLGFTGRAEGIAAQATVLIQKG
notes: IspF of B. subtilis 168 (DSM 23778); ispF gene amplified from genomic DNA, ~477 bp product, cloned BamHI/XhoI into pGEX-6P-1; GST removed by PreScission protease; also called BsIspF; MEcDP synthase; source: E. coli DH5α (pGEX-6P-1), purified (Glutathione Sepharose 4 Fast Flow, Resource Q, Superdex 75)
Regarding B4, the “stoichiometry N” value in data set [3] came to 3.
